Data published in patent US20260023068A1, “USE OF A FBXO42 SPECIFIC INHIBITOR IN TREATING NOTCH SIGNALING-DEPENDENT DISEASE” (WESTLAKE UNIVERSITY, priority 2022, published 2026).

Columns and labels:
CUL1 = biological target: T1, CUL1 (UniProt Q13616 1-776); assay: TAP-MS with FBXO42 as the bait in HEK293T cells
T1 construct: also called Cullin-1
Experimental: TAP purification was performed as described previously (W Bian et al., Low-density-lipoprotein-receptor-related protein 1 mediates Notch pathway activation. Dev Cell 56, 2902-2919 e2908 (2021)). Briefly, 1×10⁸ HEK293T cells stably expressing cSFB-RBPJ or FBXO42 were lysed in 5 ml of NETN buffer (with protease inhibitors) at 4° C. for 30 min followed by TurboNuclease treatment. The lysate was then incubated with streptavidin-conjugated beads (Thermo Fisher Scientific, Waltham, MA) for 2 h at 4° C. After washing with NETN buffer, the bound proteins were eluted with NETN buffer containing 2 mg/mL biotin (Sigma, St. Louis, MO) for 2 h at 4° C. The eluates were then incubated with S-protein beads (EMD Millipore, Burlington, […]) for 4 h. The beads were washed three times with NETN buffer and subjected to SDS-PAGE, followed by Coomassie blue staining. The whole band was excised and subjected to in-gel trypsin digestion and MS analysis.
FBXO42 is a substrate-recognition component of the SKP1-CUL1-F-box protein (SCF)-type E3 ligase complex, which has been previously reported to promote p53 ubiquitination and degradation (L. Sun et al., JFK, a Kelch domain-containing F-box protein, links the SCF complex to p53 regulation. Proc Natl Acad Sci USA 106,10195-10200 (2009)). […]

[1] = biological target: cSFB-tagged RBPJ (recombination signal-binding protein of immunoglobulin kappa J region with C-terminal SFB tag), Q06330; assay: biomolecular interaction kinetics with purified proteins; RBPJ at 225 nM loaded on SA probe, FBXO42 at 19.5-625 nM; conditions: remark: other sources report otherwise
Sequence of cSFB-tagged RBPJ (recombination signal-binding protein of immunoglobulin kappa J region with C-terminal SFB tag), Q06330 (Q06330 whole entry): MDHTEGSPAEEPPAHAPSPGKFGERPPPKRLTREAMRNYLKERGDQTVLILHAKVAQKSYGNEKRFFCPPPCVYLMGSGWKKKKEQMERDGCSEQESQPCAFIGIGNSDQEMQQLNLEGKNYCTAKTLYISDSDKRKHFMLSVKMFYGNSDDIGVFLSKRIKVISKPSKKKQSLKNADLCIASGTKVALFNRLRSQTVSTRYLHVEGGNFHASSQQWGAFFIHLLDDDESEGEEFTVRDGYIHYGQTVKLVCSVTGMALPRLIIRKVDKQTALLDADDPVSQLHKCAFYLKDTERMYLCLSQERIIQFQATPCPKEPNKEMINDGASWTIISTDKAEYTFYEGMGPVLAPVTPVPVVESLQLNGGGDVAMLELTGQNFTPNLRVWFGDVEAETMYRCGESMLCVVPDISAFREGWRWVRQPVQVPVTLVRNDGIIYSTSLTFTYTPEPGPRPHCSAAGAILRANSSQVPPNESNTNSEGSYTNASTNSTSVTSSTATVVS

RBPJ = biological target: T2, RBPJ (Homo sapiens, UniProt Q06330); assay: Biomolecular interaction analysis with purified recombinant RBPJ and FBXO42 proteins; type: binding; conditions: in vitro, RBPJ 225 nM on SA probe, FBXO42 19.5 nM-625 nM (FIG. 3I)
T2 construct: SFB (cSFB) (C); made in house; host or cells: 293F cells
T2 sequence (Q06330 whole entry): as above
Text: (A) Interaction network of FBXO42. Top 50 interactors identified in TAP-MS was shown. (B) KEGG enrichment analysis of preys acquired in FBXO42 tandem-affinity purification (TAP)-MS. The x-axis represents gene ratio=count/set size. The size of the dots represents the number of genes associated with the GO term and the color of the dots represent the adjusted P-values. (C) Circos plot showing overlapping RBPJ and FBXO42 preys. Purple lines link the genes that shared by RBPJ and FBXO42. Blue lines link different genes enriched in the same ontology term. (D and E) HEK293T cell lysates were incubated with IgG control and antibodies against FBXO42 (D) or RBPJ (E). Five percent lysate was used as the input control. Blots with antibodies recognizing RBPJ, FBXO42 and Actin are shown. (F and G) HEK293T cells were cotransfected with Myc-tagged FBXO42 and cSFB-tagged RBPJ, as indicated. The cell lysates were incubated with S beads (F) or an anti-MYC antibody (G). Five percent lysate was used as the input control. Blots with antibodies recognizing the FLAG and MYC epitope tags and Actin are shown. (H) Coomassie blue staining of cSFB-tagged RBPJ and FLAG-FBXO42 proteins purified from 293F cells. (I) Biomolecular interaction kinetics curve showing the binding affinity between purified RBPJ and FBXO42 proteins. The RBPJ was used at 225 nM for binding to SA probe. […]

T1 sequence (Q13616 whole entry): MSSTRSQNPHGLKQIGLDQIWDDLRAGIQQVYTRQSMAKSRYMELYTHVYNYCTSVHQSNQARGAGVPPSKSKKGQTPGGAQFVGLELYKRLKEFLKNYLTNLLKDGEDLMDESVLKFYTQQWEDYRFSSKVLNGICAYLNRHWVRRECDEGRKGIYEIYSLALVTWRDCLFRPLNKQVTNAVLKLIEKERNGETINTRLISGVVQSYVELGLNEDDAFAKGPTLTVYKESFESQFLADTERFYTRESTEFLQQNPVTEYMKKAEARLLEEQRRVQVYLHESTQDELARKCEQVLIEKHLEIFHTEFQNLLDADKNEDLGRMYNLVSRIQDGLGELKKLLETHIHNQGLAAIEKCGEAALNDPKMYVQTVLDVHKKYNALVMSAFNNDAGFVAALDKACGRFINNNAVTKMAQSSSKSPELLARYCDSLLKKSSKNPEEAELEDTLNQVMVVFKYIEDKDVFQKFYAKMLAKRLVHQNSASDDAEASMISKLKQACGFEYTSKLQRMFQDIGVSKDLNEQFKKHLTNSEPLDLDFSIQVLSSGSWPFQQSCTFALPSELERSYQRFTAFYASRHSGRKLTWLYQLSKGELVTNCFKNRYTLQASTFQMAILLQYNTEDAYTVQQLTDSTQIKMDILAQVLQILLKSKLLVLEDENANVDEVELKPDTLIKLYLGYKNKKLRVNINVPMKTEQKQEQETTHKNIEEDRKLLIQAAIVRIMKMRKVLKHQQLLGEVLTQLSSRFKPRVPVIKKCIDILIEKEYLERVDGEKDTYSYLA

Molecule	binding result (CUL1)	Kd [1] [nM]	Kd (RBPJ) [nM]
cSFB-FBXO42 (FBXO42 with C-terminal SFB tag) (other, UniProt Q6P3S6 1-717, looked up, Stably expressed in HEK293T cells as bait for TAP-MS; also called FBXO42 bait; not shown: C-terminal SFB tag) MASSSDSEDDSFMAVDQEETVLEGTMDQDEEPHPVLEAEETRHNRSMSELPEEVLEYILSFLSPYQEHKTAALVCKQWYRLIKGVAHQCYHGFMKAVQEGNIQWESRTYPYPGTPITQRFSHSACYYDANQSMYVFGGCTQSSCNAAFNDLWRLDLNSKEWIRPLASGSYPSPKAGATLVVYKDLLVLFGGWTRPSPYPLHQPERFFDEIHTYSPSKNWWNCIVTTHGPPPMAGHSSCVIDDKMIVFGGSLGSRQMSNDVWVLDLEQWAWSKPNISGPSPHPRGGQSQIVIDDATILILGGCGGPNALFKDAWLLHMHSGPWAWQPLKVENEEHGAPELWCHPACRVGQCVVVFSQAPSGRAPLSPSLNSRPSPISATPPALVPETREYRSQSPVRSMDEAPCVNGRWGTLRPRAQRQTPSGSREGSLSPARGDGSPILNGGSLSPGTAAVGGSSLDSPVQAISPSTPSAPEGYDLKIGLSLAPRRGSLPDQKDLRLGSIDLNWDLKPASSSNPMDGMDNRTVGGSMRHPPEQTNGVHTPPHVASALAGAVSPGALRRSLEAIKAMSSKGPSASAALSPPLGSSPGSPGSQSLSSGETVPIPRPGPAQGDGHSLPPIARRLGHHPPQSLNVGKPLYQSMNCKPMQMYVLDIKDTKEKGRVKWKVFNSSSVVGPPETSLHTVVQGRGELIIFGGLMDKKQNVKYYPKTNALYFVRAKR	binds	47	–
FBXO42: purified recombinant F-box protein 42, substrate-recognition component of the SCF-type E3 ligase complex (protein, left off: small tags and cut ends, purified recombinant F-box protein 42, substrate-recognition component of the SCF-type E3 ligase complex) MASSSDSEDDSFMAVDQEETVLEGTMDQDEEPHPVLEAEETRHNRSMSELPEEVLEYILSFLSPYQEHKTAALVCKQWYRLIKGVAHQCYHGFMKAVQEGNIQWESRTYPYPGTPITQRFSHSACYYDANQSMYVFGGCTQSSCNAAFNDLWRLDLNSKEWIRPLASGSYPSPKAGATLVVYKDLLVLFGGWTRPSPYPLHQPERFFDEIHTYSPSKNWWNCIVTTHGPPPMAGHSSCVIDDKMIVFGGSLGSRQMSNDVWVLDLEQWAWSKPNISGPSPHPRGGQSQIVIDDATILILGGCGGPNALFKDAWLLHMHSGPWAWQPLKVENEEHGAPELWCHPACRVGQCVVVFSQAPSGRAPLSPSLNSRPSPISATPPALVPETREYRSQSPVRSMDEAPCVNGRWGTLRPRAQRQTPSGSREGSLSPARGDGSPILNGGSLSPGTAAVGGSSLDSPVQAISPSTPSAPEGYDLKIGLSLAPRRGSLPDQKDLRLGSIDLNWDLKPASSSNPMDGMDNRTVGGSMRHPPEQTNGVHTPPHVASALAGAVSPGALRRSLEAIKAMSSKGPSASAALSPPLGSSPGSPGSQSLSSGETVPIPRPGPAQGDGHSLPPIARRLGHHPPQSLNVGKPLYQSMNCKPMQMYVLDIKDTKEKGRVKWKVFNSSSVVGPPETSLHTVVQGRGELIIFGGLMDKKQNVKYYPKTNALYFVRAKR	–	–	47
